From PMC7641331, “Ctf18-RFC and DNA Pol ϵ form a stable leading strand polymerase/clamp loader complex required for normal and perturbed DNA replication” (Nucleic Acids Research, 2019)
Each block holds one molecule with its values, some of them ahead of it.

Columns and labels:
[1] = target: Pol2CAT, the complete catalytic domain of Pol2 (residues 1–1192), exonuclease-deficient (D290A/E292A) (S. cerevisiae) (UniProt P21951); test: ITC; 170 μM Ctf18-1-8 titrated into 25 μM Pol2CAT in the presence of 50 μM P1P2 DNA; 25°C; 20 mM HEPES pH 7.5, 160 mM NaCl, 1 mM TCEP; 1:1 hetero-association model
[2] = target: Pol2 1-528 (Saccharomyces cerevisiae) (UniProt P21951); details: cited from earlier work
[3] = target: T1, Pol2CAT, the complete catalytic domain of Pol2 (residues 1–1192), exonuclease-deficient (D290A/E292A) (S. cerevisiae, UniProt P21951 1-1192, D290A | E292A); test: cryo-EM structure; 2 μM Ctf18-1-8, Pol2CAT and P1P2* DNA in 20 mM HEPES pH 7.5, 160 mM NaCl, 1 mM TCEP; GraFix sucrose gradient with 0.15% glutaraldehyde; only DNA-free classes refined (Class 1 4.2 Å, Class 2 5.8 Å); details: both partners purified
T1 construct: Pol2, largest (catalytic) subunit of DNA Pol ϵ, S. cerevisiae, residues 1-1192; An iron-sulfur (4Fe4S) cluster is modelled in the structure; No tag cleavage step is described; also called POL2(1–1192)exo; Pol2 catalytic domain; source: E. coli BL21(DE3)Star, purified (Histrap, Superdex 200, MonoQ); not shown: His tag (from the Histrap column)
T1 sequence (looked up): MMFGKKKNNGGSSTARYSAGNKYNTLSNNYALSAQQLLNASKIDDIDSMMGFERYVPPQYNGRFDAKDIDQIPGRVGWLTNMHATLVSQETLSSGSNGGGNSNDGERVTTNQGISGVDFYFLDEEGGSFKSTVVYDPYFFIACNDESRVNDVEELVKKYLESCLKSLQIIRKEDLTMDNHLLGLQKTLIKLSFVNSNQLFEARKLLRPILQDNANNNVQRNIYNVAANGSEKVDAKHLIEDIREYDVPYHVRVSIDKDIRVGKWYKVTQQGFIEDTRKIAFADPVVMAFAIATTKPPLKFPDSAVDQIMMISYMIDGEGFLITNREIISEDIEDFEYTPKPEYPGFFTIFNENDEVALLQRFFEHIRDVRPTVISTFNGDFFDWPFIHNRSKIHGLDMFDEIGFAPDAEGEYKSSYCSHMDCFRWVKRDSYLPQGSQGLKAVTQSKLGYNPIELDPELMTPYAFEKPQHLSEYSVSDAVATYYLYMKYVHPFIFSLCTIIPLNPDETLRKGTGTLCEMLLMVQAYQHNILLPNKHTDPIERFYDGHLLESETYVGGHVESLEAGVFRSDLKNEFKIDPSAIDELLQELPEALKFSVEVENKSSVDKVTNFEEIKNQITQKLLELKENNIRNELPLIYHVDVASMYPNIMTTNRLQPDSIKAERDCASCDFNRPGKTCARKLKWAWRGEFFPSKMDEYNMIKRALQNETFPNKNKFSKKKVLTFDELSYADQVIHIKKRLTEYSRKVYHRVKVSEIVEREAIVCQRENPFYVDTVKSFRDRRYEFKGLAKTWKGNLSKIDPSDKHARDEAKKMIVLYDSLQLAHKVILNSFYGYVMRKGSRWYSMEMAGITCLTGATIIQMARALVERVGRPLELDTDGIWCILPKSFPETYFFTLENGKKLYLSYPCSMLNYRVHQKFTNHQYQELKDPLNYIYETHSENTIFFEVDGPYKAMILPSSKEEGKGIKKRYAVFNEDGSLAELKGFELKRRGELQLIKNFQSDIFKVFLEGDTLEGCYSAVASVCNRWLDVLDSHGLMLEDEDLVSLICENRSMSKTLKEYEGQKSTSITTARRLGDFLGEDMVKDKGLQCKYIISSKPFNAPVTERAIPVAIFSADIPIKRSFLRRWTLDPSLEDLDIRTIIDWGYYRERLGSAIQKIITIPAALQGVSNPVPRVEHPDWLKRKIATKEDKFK

[4] = target: T2, Pol2CAT (exonuclease-deficient DNA Pol epsilon catalytic domain) (UniProt P21951 1-1192, D290A;E292A); test: EMSA; 50 nM DNA, no dNTP; EMSA: 25 mM HEPES pH 7.5, 60 mM KCl, 10% glycerol, 1 mM TCEP, 50 nM P1P2*, 20 min on ice, 6% Tris-glycine gel at 4 C; details: protein: recombinant; tags: N-terminal His (pETM14); label: 5' Cy3 on P1; 5' overhang 5 nt on P2 (template); 11 bp duplex
T2 sequence: T1 sequence (looked up)

[5] = target: Pol2CAT (exonuclease-deficient DNA Pol epsilon catalytic domain);Ctf18-1-8 wild type (Ctf18 C-terminal … (Saccharomyces cerevisiae?;Saccharomyces …, UniProt P21951;P49956;P25559;P38877 1-1192;666-741;1-380;1-133, D290A;E292A|)); test: EMSA supershift; 50 nM DNA; supershift saturated at 125 nM Ctf18-1-8 (lowest tested); DNA binding identical to Pol2CAT alone; EMSA: 25 mM HEPES pH 7.5, 60 mM KCl, 10% glycerol, 1 mM TCEP, 50 nM P1P2*, 20 min on ice, 6% Tris-glycine gel at 4 C; details: protein: recombinant;recombinant; tags: N-terminal His (pETM14); copies: 1;1;1;1; label: 5' Cy3 on P1; 5' overhang 5 nt on P2 (template); 11 bp duplex
Pol2CAT (exonuclease-deficient DNA Pol epsilon catalytic domain);Ctf18-1-8 wild type (Ctf18 C-terminal …, sequence (P49956 666-741, chain 2 of 2): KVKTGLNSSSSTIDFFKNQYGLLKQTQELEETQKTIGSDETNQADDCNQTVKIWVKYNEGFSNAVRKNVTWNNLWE
Pol2CAT (exonuclease-deficient DNA Pol epsilon catalytic domain);Ctf18-1-8 wild type (Ctf18 C-terminal …, sequence (P38877 whole entry, chain 4 of 2, the tested form may be a part): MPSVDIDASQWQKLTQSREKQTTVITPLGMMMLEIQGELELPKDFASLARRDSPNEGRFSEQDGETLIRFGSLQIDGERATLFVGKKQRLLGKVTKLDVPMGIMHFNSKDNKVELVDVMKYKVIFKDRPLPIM

Kd [1]: 40 nM
Molecule: Ctf18-1-8 module (C-terminus of Ctf18 with Dcc1 and Ctf8), wild type (from UniProt P49956 1-741; P25559 1-380; P38877 1-133) (complex)

Molecule: Ctf18-1-8 (from UniProt P49956)
Kd [2]: 1300 nM

binding result [3]: binds
B1: Dcc1 (chain of the recombinant Ctf18-1-8 module) (natural protein, S. cerevisiae)
chain: MSINLHSAPEYDPSYKLIQLTPELLDIIQDPVQNHQLRFKSLDKDKSEVVLCSHDKTWVLKQRKHSNTVLLMREFVPEQPITFDETLLFGLSKPYMDVVGFAKTESEFETRETHGELNLNSVPIYNGELDFSDKIMKRSSTKVIGTLEELLENSPCSALEGISKWHKIGGSVKDGVLCILSQDFLFKALHVLLMSAMAESLDLQHLNVEDTHHAVGKDIEDEFNPYTREIIETVLNKFAVQEQEAENNTWRLRIPFIAQWYGIQALRKYVSGISMPIDEFLIKWKSLFPPFFPCDIDIDMLRGYHFKPTDKTVQYIAKSTLPMDPKERFKVLFRLQSQWDLEDIKPLIEELNSRGMKIDSFIMKYARRKRLGKKTVVTSR
notes: Dcc1, S. cerevisiae; The Dcc1 chain of m2, written alone for the pairs that touch in the structures; also called Dcc1WH3 (its last winged helix domain)

B2: P1P2* primer-template (dsDNA)
DNA 1: TAACCGCGTTC
DNA 2: CTCTTGAACGCGGTTA
binding result [4]: binds
binding result [5]: binds
